From US11732048B2, “Anti-axl antagonistic antibodies” (BERGEN TEKNOLOGIOVERFØRING AS, priority 2016, dated 2023)
Entries after “also recorded” stand apart in the source; their conditions may differ.

Legend:
[1] = test system: Axl-positive cells (MDA-MB-231); test: Flow cytometry binding to Axl-positive cells; design: species or system human
Procedure: Different concentrations of chimeric antibody was tested in flow cytometry for binding to triple-negative breast cancer cell line MDA-MB-231. The bound chimeric antibody was detected with APC-conjugated donkey F(ab′)2 fragments specific for either mouse IgG (H+L), 1:500 dilution, or human IgG (H+L), 1:300 dilution, respectively (both from Jackson ImmunoResearch). The cell staining was measured using Accuri C6 flow cytometer (BD Biosciences). MFI, geometric mean fluorescence intensity.
For flow cytometry, the adherent cells in culture were washed with PBS, detached by trypsin (0.25%) treatment for 1 min and hitting culture dish for full detachment. Trypsin was quenched by adding into the tissue flask the complete medium followed by washing the cells with PBS. […]
The purified chimeric antibodies (>95% purity) were analysed for binding to Axl-positive breast cancer cell line MDA-MB-231 in flow cytometry. […] The cell-bound antibodies were detected with APC-conjugated donkey anti-human or anti-mouse, respectively, IgG (H+L) F(ab′)2 fragments (Jackson ImmunoResearch). […]
For flow cytometry, the adherent cells in culture were washed with PBS, detached by treatment with trypsin (0.25%) for 1 min. […] The cell-bound antibodies were detected with APC-conjugated donkey anti-human IgG (H+L) F(ab′)2 fragments (Jackson ImmunoResearch Laboratories #709-136-149, 1:400 dilution). […]

[2] = target: T1, human Axl (rhAxl-Fc chimera) (Homo sapiens, UniProt P30530); test: Biacore binding analysis on immobilised human Axl; settings: 10 μg/mL in HBS-EP, 25° C.
T1 construct: Soluble recombinant antigens corresponding to the extracellular domains of members of the human TAM receptor family; Fc; purchased R&D Systems 154-AL
Procedure: All binding experiments were performed using Biacore 3000 instrument (GE Healthcare) at 25° C. Soluble recombinant antigens corresponding to the extracellular domains of members of the human TAM receptor family, Axl (rhAxl-Fc chimera; R&D Systems, Cat. no. 154-AL), Mer (rhMer-Fc chimera; R&D Systems, Cat. no. 891-MR) and Tyro3 (rhTyro3/Dtk-Fc chimera; R&D Systems, Cat. no. 859-DK) were immobilized on the surface of CM5 sensor chip using amine coupling at the surface density of 393.0, 303.6 and 364.0 resonance units (RU), respectively. The Biacore run was performed in an automatic mode using Binding analysis wizard. Samples containing MAb 10G5 at concentration 10 μg/mL in HBS-EP buffer (GE Healthcare) were injected over the surfaces with immobilized antigens at flow rate of 30 μL/min for 3 min (association) followed by 5 min dissociation.
The binding experiments were performed using Biacore 3000 instrument (GE Healthcare) at 25° C. The soluble recombinant antigens corresponding to human Axl (rhAxl-Fc chimera; R&D Systems, Cat. no. 154-AL), mouse Axl (rmAxl-Fc chimera; R&D Systems, R&D Systems; Cat. no. 854-AX) and human Tyro3 (rhTyro3/Dtk-Fc chimera; R&D Systems, Cat. no. 859-DK) were immobilized on the surface of CM5 sensor chip using amine coupling at the surface density of 1,308.0, 2,115.9 and 1,429.0 RU, respectively. The Biacore runs were performed in an automatic mode using Binding analysis wizard.
The sample containing MAb 10G5 or recombinant mouse (rm) Axl-ligand Gas6 (R&D Systems, Cat. no. 986-GS/CF) at concentration 10 μg/mL in HBS-EP buffer (GE Healthcare) was injected over the surfaces with immobilized antigens at flow rate of 30 μL/min for 3 min (association) followed by 5 min dissociation.
The sequence of Axl receptor from cynomolgus monkey (Macaca fascicularis; SEQ ID NO: 27) was retrieved from WO2009062690A1. Based on the sequence, recombinant extracellular domain of cyno-Axl was generated by transient expression in CHO cells as a fusion protein with human Fc. The recombinant cyno-Axl-Fc was purified to homogeneity using Protein A-Sepharose (GE Healthcare). The binding experiments were performed using Biacore 3000 instrument (GE Healthcare) at 25° C. The soluble recombinant antigens corresponding to human Axl (rhAxl-Fc chimera; R&D Systems, Cat. no. 154-AL) and cyno-Axl were immobilized on the surface of CM5 sensor chip using amine coupling at the surface density of 775 and 880 RU, respectively. The Biacore runs were performed in an automatic mode using Binding analysis wizard.
The sample containing MAb 10G5 or human Axl-specific MAb 5F11 (control) at concentration 10 μg/mL in HBS-EP buffer (GE Healthcare) was injected over the surfaces with immobilized antigens at flow rate of 30 μL/min for 3 min (association) followed by 5 min dissociation. […]

B1: murine 10G5: mouse monoclonal anti-human Axl antibody from hybridoma WR-10G5-E5; VH SEQ ID NO: 28, VL SEQ ID NO: 29 (antibody, listed as Mus musculus, V domains shown)
VH: QVQLQQSGAELVRPGASVKLSCKASGYSFTDFYINWVRQRPGQGLEWIARIFPGGDNTYYNEKFKGKATLTAEESSSTAYIQLSSLTSEDSAVYFCARRGLYYAMDYWGQGISVTVSS
VL: DVLMTQTPLSLPVSLGDQASISCRSSQSLVHSNGIPYLHWYLQKPGQSPKLLIYRVSNRFSGVPDRFSGSGSGTDFTLKISRVEAEDLGVYFCSQGTHVPPTFGGGTKLEIK
modifications: (1)..(118) Mus musculus 10G5 VH domain; (1)..(112) Mus musculus 10G5 VL domain
B1 was tested, and the “Binding to Axl+ cells in flow cytometry (clone selection)” value ([1]; Example 1) was “specific binding” and the “Binding to human Axl” value [2] was “bind strongly; also recorded: specific binding; also recorded: strong and specific interaction”.

B2: c10G5: chimeric (mouse variable/human constant) IgG1 antibody with the 10G5 VH and VL (antibody, V domains shown)
VH: B1 VH
VL: B1 VL
For B2, the “Binding to Axl-positive MDA-MB-231 cells in flow cytometry” value ([1]; titration of antibody, APC-conjugated secondary) was “Dose-dependent binding” and the “Binding to human Axl” value [2] was “binds immobilized Axl with profiles very similar to the binding profiles of the corresponding mouse antibody”.
